Source: patent publication US20240101645A1 (HENRY M JACKSON FOUNDATION FOR THE ADVANCEMENT OF MILITARY …, published 2024)

Legend:
[1] = molecular target: T1, HCoV-229E spike antigens (bead panel) (HCoV-229E, UniProt P15423 16-1115); experiment: multiplex bead assay
T1 sequence: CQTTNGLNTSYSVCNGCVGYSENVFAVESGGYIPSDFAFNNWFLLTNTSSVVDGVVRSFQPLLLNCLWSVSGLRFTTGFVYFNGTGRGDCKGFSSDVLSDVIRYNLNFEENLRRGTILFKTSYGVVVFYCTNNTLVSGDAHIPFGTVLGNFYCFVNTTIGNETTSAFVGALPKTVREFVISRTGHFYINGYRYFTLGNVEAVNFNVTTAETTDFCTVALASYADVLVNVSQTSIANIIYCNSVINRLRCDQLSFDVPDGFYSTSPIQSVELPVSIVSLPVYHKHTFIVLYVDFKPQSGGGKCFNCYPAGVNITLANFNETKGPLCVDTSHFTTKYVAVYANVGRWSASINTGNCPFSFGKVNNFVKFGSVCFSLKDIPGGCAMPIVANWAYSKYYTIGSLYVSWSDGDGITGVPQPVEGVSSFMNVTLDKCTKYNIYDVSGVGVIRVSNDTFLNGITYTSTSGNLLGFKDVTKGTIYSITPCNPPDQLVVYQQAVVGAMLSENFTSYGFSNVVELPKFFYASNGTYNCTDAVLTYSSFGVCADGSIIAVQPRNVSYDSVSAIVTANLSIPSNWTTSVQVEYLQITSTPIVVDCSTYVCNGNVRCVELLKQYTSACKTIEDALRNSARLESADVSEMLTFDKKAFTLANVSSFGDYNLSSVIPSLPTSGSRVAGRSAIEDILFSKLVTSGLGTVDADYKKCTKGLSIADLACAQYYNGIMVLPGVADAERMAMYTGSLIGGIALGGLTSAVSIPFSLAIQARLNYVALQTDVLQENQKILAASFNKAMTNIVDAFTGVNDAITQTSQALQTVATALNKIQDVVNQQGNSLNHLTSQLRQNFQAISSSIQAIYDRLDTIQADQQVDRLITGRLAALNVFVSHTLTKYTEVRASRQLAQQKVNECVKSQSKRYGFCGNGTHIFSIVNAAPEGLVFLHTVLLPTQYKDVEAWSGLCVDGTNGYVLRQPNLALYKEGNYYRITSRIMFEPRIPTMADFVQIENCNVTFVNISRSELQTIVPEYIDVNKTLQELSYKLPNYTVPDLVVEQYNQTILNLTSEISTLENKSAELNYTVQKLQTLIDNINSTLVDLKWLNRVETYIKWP

[2] = molecular target: T2, HCoV-NL63 spike antigens (bead panel) (HCoV-NL63, UniProt Q6Q1S2 19-1296); experiment: multiplex bead assay
T2 sequence: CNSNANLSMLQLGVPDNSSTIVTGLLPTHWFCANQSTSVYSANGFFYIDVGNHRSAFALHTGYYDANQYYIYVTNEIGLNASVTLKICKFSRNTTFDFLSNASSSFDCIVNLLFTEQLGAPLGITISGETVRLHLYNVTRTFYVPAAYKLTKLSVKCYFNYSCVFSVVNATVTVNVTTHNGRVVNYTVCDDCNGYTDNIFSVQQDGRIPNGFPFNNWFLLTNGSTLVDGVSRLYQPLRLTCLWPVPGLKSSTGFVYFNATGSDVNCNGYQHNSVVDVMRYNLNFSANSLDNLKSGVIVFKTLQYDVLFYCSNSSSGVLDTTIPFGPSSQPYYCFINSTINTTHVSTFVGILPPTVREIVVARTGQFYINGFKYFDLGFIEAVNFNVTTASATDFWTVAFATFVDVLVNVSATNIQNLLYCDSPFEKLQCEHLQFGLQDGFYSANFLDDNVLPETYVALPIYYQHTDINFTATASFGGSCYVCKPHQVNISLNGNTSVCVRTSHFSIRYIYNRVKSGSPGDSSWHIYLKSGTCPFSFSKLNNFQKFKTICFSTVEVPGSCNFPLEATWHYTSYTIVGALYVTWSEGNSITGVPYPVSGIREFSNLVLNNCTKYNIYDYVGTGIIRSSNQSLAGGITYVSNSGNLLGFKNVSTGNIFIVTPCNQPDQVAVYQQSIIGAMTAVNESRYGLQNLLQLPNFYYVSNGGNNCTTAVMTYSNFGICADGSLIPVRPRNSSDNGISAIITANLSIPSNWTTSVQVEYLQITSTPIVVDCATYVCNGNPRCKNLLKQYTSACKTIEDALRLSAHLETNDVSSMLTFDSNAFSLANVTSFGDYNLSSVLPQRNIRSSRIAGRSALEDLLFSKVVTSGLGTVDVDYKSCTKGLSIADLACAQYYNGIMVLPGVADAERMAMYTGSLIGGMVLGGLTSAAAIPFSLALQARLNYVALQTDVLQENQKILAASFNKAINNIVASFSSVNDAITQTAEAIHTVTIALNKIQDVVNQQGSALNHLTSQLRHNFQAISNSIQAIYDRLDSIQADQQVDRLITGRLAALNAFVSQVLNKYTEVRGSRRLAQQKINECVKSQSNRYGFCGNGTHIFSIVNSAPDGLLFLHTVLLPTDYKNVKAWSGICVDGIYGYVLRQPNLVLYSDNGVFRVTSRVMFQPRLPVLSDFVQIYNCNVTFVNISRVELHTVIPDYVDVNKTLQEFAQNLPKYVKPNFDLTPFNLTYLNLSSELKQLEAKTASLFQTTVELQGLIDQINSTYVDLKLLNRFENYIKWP

Row | Binder | binding result [1] | binding result [2]
1 | COV_3069 (antibody, V domains shown, human IgG1) VH: EVQLVESGGGLVKPGGSLRLSCAASGFTFGSYTMNWVRQAPGKGLEWVSSIDTTSSSIYYADSLKGRFAISRDSAKNSLYLQMNRLRAEDTAVYYCARGNGHSYDSSGYHYGMYFDYWGQGTLVTVSS VL: DIQMTQSPSTLSASVGDRVTITCRASQSISRWLAWYQQKPGKAPKLLIYEVSSLENGVPSRFSGSRSGTEFTLTISSLQPDDFAIYYCQQYNTYSRTFGQGTKVEIKR | no binding | no binding
2 | COV_2215 (antibody, V domains shown, human IgG1) VH: EVQLVESGGGLVKPGGSLRLSCAASGFTFSHAWMSWVRQAPGKGLEWVGRIKSKTDGGTADYAAPVKGRFTISRDDSKNTLYLQMNSLKTEDTAVYYCATIRYYYDSSAYLNDAFDIWGQGTMVTVSS VL: SYELTQPPSVSVSPGQTARITCSGDALPKKYAYWYQQKSGQAPVLVIYEDSKRPSGIPERFSGSSSGTMATLTISGAQVEDEADYYCYSTDSSGNHRVFAGGTKLTVLG | no binding | no binding
3 | COV_3129 (antibody, V domains shown, human IgG1) VH: QVQLQQWGAGLLKPSDTLSLTCAANGGGSFSGYYLGYIRQSPGKGLEWIGEINHNGGTNYNPSLKSRVTISGDTSKNQFSLKLSSVTAADTAIYYCARSRDSSLGDAVWYEYWGQGTLITVSS VL: EIVLTQSPATLSLSPGERATLSCRASQSVDIYLAWYQQRPGQAPRLLISDASKRATGVPARFSGSGSGTDFTLTINSLEPEDFAIYYCQQRRDWPINFGQGTRLEIKR | no binding | no binding
4 | COV_1177 (antibody, V domains shown, human IgG1) VH: QVQLVESGGGVVQPGRSLRLSCAASGFTFSSYGMHWVRQAPGKGLEWVAVIWYDGSNKYYADSVKGRFTISRDNSKNTLYLQMNSLRAEDTAVYYCARDPLGAVAGYFDYWGQGTLVTVSS VL: SYVLTQPPSVSVAPGQTARITCGGNNIGSKSVHWYQQKPGQAPVLVVYDDSDRPSGIPERFSGSNSGNTATLTISRVEAGDEADYYCQVWDSSSDHHWVFGGGTKLTVLG | no binding | no binding
5 | COV_2169 (antibody, V domains shown, human IgG1) VH: EVQLVESGGGVVQPGRSLRLSCAASGFTFSRYAMHWVRQAPGKGLEWVAVISYEGSNKYYADSVKGRFTISRNNSNNTLSLQMNSLRPDDTAVYYCVRSGGHYFDAFDLWGQGTMVTVSS VL: EIVLTQSPGTLSLSPGERATLSCRASQSVSRNYVAWYQQKPGQAPRLLIYGASSRATGIPDRFSGSGSGTDFTLTISRLEPEDFALYYCQQYGSSYTFGQGTKLEIKR | no binding | no binding
6 | COV_2032 (antibody, V domains shown, human IgG1) VH: EVQLVESGGGLVQPGGSLRLSCAASGFTFTTYWMHWVRQAPGKGLVWVSRIKTDGSSTNYADSVKGRFTISRDNAKNMLYLQMNSLRAEDTAVYYCAREGPVSIVYFDYWGQGTLVTVSS VL: not shown | no binding | no binding
7 | COV_2125 (antibody, V domains shown, human IgG1) VH: EVQLVESGGGVVQPGRSLRLSCAASGFTFSSYGMHWVRQAPGKGLEWVAVISYDGSNKYYADSVKGRFTISRDNSKNTLSLQMNSLRPEDTAVYYCAKDSPYYYDSSGYYPGYFQDWGQGSLVTVSS VL: DIQMTQSPSSLSASIGDRVTITCRASQTISDYLNWYQQKPGKAPNLLIYAASTLQSGVPSRFSGSGSGTDFTLTISSLQPEDFATYYCQQSYITPRTFGQGTKVEIK | no binding | no binding
8 | COV_2205 (antibody, V domains shown, human IgG1) VH: EVQLVESGGGLVKPGGSLRLSCAASGFTFSDYYMIWIRQAPGEGLEWVSYISSRSSYTNYADSVKGRFTISRDNARNSLYLQMNSLRAEDTAVYYCARGQHDLLTGYYSWAYFDYWGQGTLVTVSS VL: not shown | no binding | no binding
9 | COV_1184 (antibody, V domains shown, human IgG1) VH: QVQLQQWGAGLLKPSETLSLTCAVYGGSFSGYYWSWIRQPPGKGLEWIGEINHSGNTTYNPSLKSRVTISVDTSKNQFSLKLSSVTAADTAVYYCARGLVITYYYDSSGKPFDPWGQGTLVTVSS VL: not shown | no binding | no binding
